According to patent publication US12234475B2, “Compositions and methods for therapeutic delivery” (GenVivo, Inc., priority 2021, dated 2025):

Tested on: mouse splenocytes
Experiment: IFN-γ production by ELISA after stimulating mouse splenocytes with IL-12 containing conditioned media
Type: cell-based
Conditions: summary, compared with commercial IL-12
Procedure: Functionality of mIL-12 was examined by incubating mouse splenocytes with mIL-12 and measuring INF-γ. About 2×10^6 mouse splenocytes were stimulated with either commercial recombinant mouse IL-12 (rIL-12) or the CM from mIL-12 retroviral vector transduced and stably expressing A375 cells for 48 hours. Following stimulation, the CM from each culture was collected and measured for IFN-γ production by ELISA (FIG. 5).
Next, CT26, murine colorectal carcinoma cell line was transduced with the mIL-12 retroviral vector and examined whether or not secreted mIL-12 can produce IFN-γ and activate inflammatory genes from immune cells. About 2×10^6 mouse splenocytes were stimulated with either commercial rIL-12 or the CM from mIL-12 expressing CT26 cells at the concentration of 2 ng/mL for 48 hours. Following stimulation, the supernatant and cells from each group were collected and analyzed for the production of IFN-γ via ELISA and the expression of inflammatory genes via qPCR. […] Some preliminary animal studies were performed by implanting 1.5×10^5 CT26 cells stably expressing luciferase gene or CT26 cells stably expressing luciferase and mIL-12 gene from the retroviral vector cells into the right shoulder flank. […] Bio-luminescence images of animals implanted with either CT26 expressing luciferase or luciferase and mIL-12 tumor cells are shown in FIG. 12. […]

B1: mIL-12: mouse IL-12 heterodimer of P40 and P35 secreted by cells transduced with the mIL-12 retroviral vector (protein, UniProt P43432 23-335; P43431 23-215, looked up)
Interleukin-12 subunit beta: MWELEKDVYVVEVDWTPDAPGETVNLTCDTPEEDDITWTSDQRHGVIGSGKTLTITVKEFLDAGQYTCHKGGETLSHSHLLLHKKENGIWSTEILKNFKNKTFLKCEAPNYSGRFTCSWLVQRNMDLKFNIKSSSSSPDSRAVTCGMASLSAEKVTLDQRDYEKYSVSCQEDVTCPTAEETLPIELALEARQQNKYENYSTSFFIRDIIKPDPPKNLQMKPLKNSQVEVSWEYPDSWSTPHSYFSLKFFVRIQRKKEKMKETEEGCNQKGAFLVEKTSTEVQCKGGNVCVQAQDRYYNSSCSKWACVPCRVRS
Interleukin-12 subunit alpha: RVIPVSGPARCLSQSRNLLKTTDDMVKTAREKLKHYSCTAEDIDHEDITRDQTSTLKTCLPLELHKNESCLATRETSSTTRGSCLPPQKTSLMMTLCLGSIYEDLKMYQTEFQAINAALQNHNHQQIILDKGMLVAIDELMQSLNHNGETLRQKPPVGEADPYRVKMKLCILLHAFSTRVVTINRVMGYLSSA
T-cell activation and IFN-γ production in vitro: as functionally effective as commercial IL-12
